Measured values taken from the RNAGym collection of RNA variant scans (doi:10.1093/molbev/msab373).

B1: Azoarcus group I ribozyme (parent)
chain: GUGCCUUGCGCCGGGAAACCACGCAAGGGAUGGUGUCAAAUUCGGCGAAACCUAAGCGCCCGCCCGGGCGUAUGGCAACGCCGAGCCAAGCUUCGGCGCCUGCGCCGAUGAAGGUGUAGAGACUAGACGGCACCCACCUAAGGCAAACGCUAUGGUGAAGGCAUAGUCCAGGGAGUGGCGAAAGUCACACAAACCGG

Variants of: B1
Assay: reverse-splicing fitness (ratio to wild type); higher = more active; in vitro selection; Mg2+ level not given
Summary of the method: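 An in vitro group I ribozyme library with randomized positions was T7-transcribed and gel-purified. In triplicate, 10 pmol RNA in EPPS pH 7.5 was reacted with 50 pmoles of a 30-nt RNA substrate for 1 h at 37 °C across several added MgCl2 levels (1–48 mM), then stopped with EDTA. Products were reverse transcribed from a substrate-complementary primer, PCR-amplified and sequenced (HiSeq 4000). Fitness is a variant's read proportion after selection over that before, normalised to wild type.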

| Variant | reverse-splicing fitness |
| --- | --- |
| C82G A111G A120C C150A U176C | 0.0277 |
| C82G A111G A120C C150A U176A | 0.014 |
| C82G A111G A120G A145U C150A C169G U176A | 0.017 |
| C82G A111G A120G A145U C150A C169G U176C | 0.0174 |
| C82G A111G A120G A145U C150A C169G U176G | 0.00454 |
| C82G A111G A120G A145C C150A U176C | 0.0132 |
| C82G A111G A120G A145C C150A U176G | 0.00588 |
| C82G A111G A120G A145C C150A U176A | 0.0127 |
| C82G A111G A120C C150U C169U | 0.0144 |
| C82G A111G A120C C150U C169A | 0.0102 |
| C82G A111G A120C C150U C169G | 0.00909 |
| C82G A111G A120C C150U | 0.0417 |
| C82G A111G A120C C150G | 0.0105 |
| C82G A111G A120C C150A | 0.0154 |
| C82G A111G A120G A145G C150U C169A U176G | 0.00616 |
| C82G A111G A120G A145G C150U C169A U176C | 0.0177 |
| C82G A111G A120G A145G C150U C169A U176A | 0.0163 |
| C82G A111G A120C C150U U176C | 0.0344 |
| C82G A111G A120C C150U U176G | 0.0127 |
| C82G A111G A120C C150U U176A | 0.0201 |
| C82G A111G A120C C150G C169U | 0.0104 |

| Variant | reverse-splicing fitness |
| --- | --- |
| C82G A111G A120C C150G C169G | 0.008 |
| C82G A111G A120C C150G C169A | 0.00976 |
| C82G A111G A120G A145C C150U C169G U176A | 0.022 |
| C82G A111G A120G A145C C150U C169G U176G | 0.00557 |
| C82G A111G A120G A145C C150U C169G U176C | 0.0155 |
| C82G A111G A120C C150A C169G U176A | 0.0218 |
| C82G A111G A120C C150A C169G U176C | 0.0218 |
| C82G A111G A120C C150A C169G U176G | 0.00655 |
| C82G A111G A120G A145C C150U C169A U176A | 0.0167 |
| C82G A111G A120G A145C C150U C169A U176G | 0.00578 |
| C82G A111G A120G A145C C150U C169A U176C | 0.00841 |
| C82G A111G A120G A145C C150U | 0.00975 |
| C82G A111G A120G A145C C150A | 0.00699 |
| C82G A111G A120G A145C C150G | 0.00711 |
| C82G A111G A120G A145U C150A C169A | 0.0096 |
| C82G A111G A120G A145U C150A C169G | 0.00924 |
| C82G A111G A120G A145U C150A C169U | 0.00794 |
| C82G A111G A120G A145C C169U | 0.0132 |
| C82G A111G A120G A145C C169A | 0.0114 |
| C82G A111G A120G A145C C169G | 0.0204 |
| C82G A111G A120G C150G U176G | 0.00387 |

| Variant | reverse-splicing fitness |
| --- | --- |
| C82G A111G A120G C150G U176A | 0.0085 |
| C82G A111G A120G C150G U176C | 0.0157 |
| C82G A111G A120G C169G | 0.0219 |
| C82G A111G A120G C169A | 0.0124 |
| C82G A111G A120G C169U | 0.0144 |
| C82G A111G A120G A145U C169A U176C | 0.0152 |
| C82G A111G A120G A145U C169A U176A | 0.0151 |
| C82G A111G A120G A145U C169A U176G | 0.00446 |
| C82G A111G A120G C150G | 0.00784 |
| C82G A111G A120G C150U | 0.0156 |
| C82G A111G A120G C150A | 0.0101 |
| C82G A111G A120G A145C C150A C169A U176A | 0.0139 |
| C82G A111G A120G A145C C150A C169A U176G | 0.00537 |
| C82G A111G A120G A145C C150A C169A U176C | 0.00767 |
| C82G A111G A120G C150U C169A U176A | 0.0193 |
| C82G A111G A120G C150U C169A U176C | 0.0197 |
| C82G A111G A120G C150U C169A U176G | 0.00607 |
| C82G A111G A120C A145U U176A | 0.0294 |
| C82G A111G A120C A145U U176G | 0.00776 |
| C82G A111G A120C A145U U176C | 0.0434 |
| C82G A111G A120G A145C C150U C169U U176G | 0.00538 |

| Variant | reverse-splicing fitness |
| --- | --- |
| C82G A111G A120G A145C C150U C169U U176C | 0.0151 |
| C82G A111G A120G A145C C150U C169U U176A | 0.0174 |
| C82G A111G A120G A145G C150U C169G U176G | 0.00532 |
| C82G A111G A120G A145G C150U C169G U176A | 0.0139 |
| C82G A111G A120G A145G C150U C169G U176C | 0.0201 |
| C82G A111G A120G A145C C150A C169U | 0.0075 |
| C82G A111G A120G A145C C150A C169A | 0.00854 |
| C82G A111G A120G A145C C150A C169G | 0.00843 |
| C82G A111G A120G A145G C169A | 0.0141 |
| C82G A111G A120G A145G C169G | 0.0197 |
| C82G A111G A120G A145G C169U | 0.0134 |
| C82G A111G A120G C150U C169A | 0.0118 |
| C82G A111G A120G C150U C169U | 0.0114 |
| C82G A111G A120G C150U C169G | 0.0154 |
| C82G A111G A120C A145U C150U C169U U176C | 0.0143 |
| C82G A111G A120C A145U C150U C169U U176G | 0.00591 |
| C82G A111G A120G A145U U176G | 0.00543 |
| C82G A111G A120G A145U U176A | 0.0167 |
| C82G A111G A120G A145U U176C | 0.0242 |
| C82G A111G A120G A145G C150U U176G | 0.00823 |
| C82G A111G A120G A145G C150U U176A | 0.0115 |
